Measurements published in publication PMC4325230 (Stem Cell Reports, 2015).

Target: EGF receptor (UniProt P00533 25-645)
Experiment: MST

Kd: 384 ± 76.5 nM
B1: EGFL7 (natural protein, UniProt Q9UHF1 24-273, looked up)
chain: YRPGRRVCAVRAHGDPVSESFVQRVYQPFLTTCDGHRACSTYRTIYRTAYRRSPGLAPARPRYACCPGWKRTSGLPGACGAAICQPPCRNGGSCVQPGRCRCPAGWRGDTCQSDVDECSARRGGCPQRCVNTAGSYWCQCWEGHSLSADGTLCVPKGGPPRVAPNPTGVDSAMKEEVQRLQSRVDLLEEKLQLVLAPLHSLASQALEHGLPDPGSLLVHSFQQLGRIDSLSEQISFLEEQLGSCSCKKDS
